test system: Saccharomyces cerevisiae; test: transcriptional activation domain activity (GFP:mCherry ratio, weighted mean of sorted bins, harmonized to initial dataset scale) (arbitrary fluorescence ratio units); higher = stronger transcriptional activation; settings: beta-estradiol 1 µM; induction time 4 h
Outline: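 Yeast diploids with a GFP reporter received barcoded protein tiles, fused to an estradiol-inducible synthetic transcription factor, at the URA3 locus. Cultures were diluted 1:5 into SC holding 1 uM beta-estradiol, incubated 4 hours at 30 °C, sorted into 8 bins on GFP:mCherry ratio, and sequenced for barcodes, with tiles under 50 reads discarded. Activation activity values come from the read-weighted mean of bin median fluorescence, averaged across barcodes and linearly placed on the initial dataset scale.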

Row | Sequence | transcriptional activation domain activity
1 | MLSHLVVSTPHCSIMFGPSMDWTRVFAFFLLLRFSLHWISNNCFVSPLLLLCY | 69800
2 | MCHLTLLSLCFCSVASLLLSLFPLSLCLPFFILFIPPLFFLPHHIPSSFSFLV | 59600
3 | FKVLMQVMPFVLHGLVDDKLRTLWRMLGELGAFLWMPLIKDKEVYLRKLAVII | 48700
4 | RGYDIAKVSNSADLVSWVIAWLLCNNPHIVFIHFGFSYDILVLAAHALHILDC | 38500
5 | MELSFFSVSSDGDLFFLLLFLIRGVLEKYFFDWYFDLPLWVFVCFFLFVFLTL | 54600
6 | FLLAIRVSNMDLLMIGIMLTLFVRNVIVSTDYIRRGRVRYKALFYVLLCKYYR | 49600
7 | LQASREEIRKKVSEDDHGLTRFRRQVVLALDLYIWEPICISLRFLRLVMIFVP | 52400
8 | MKFVFVPFAVSPPKPFFLLLFLLLFFTSTFCAFSISPFSLFCSSLFYCSRFLL | 52400
9 | NIAQNMNQFRRQQVVYSPDTRKYSLLIREGRVGYPGVACMEIESTDPSLVVDK | 35000
10 | IPPLVLFFHFHFPSCGGCAFCRCLFLCLLLLALSLPLIPVSLIMCYPCHMYLL | 41100
11 | MSDHRIIIVLAFFLIFFFNPPPLPLPTYPYQYSLLTYSLFFEPFFFSFPFFFS | 63100
12 | FSLIKGLGSLVPLNKLRQESLLEEEDENNTEPSDFRTIVEEFQSEYNISDILS | 45000
13 | MASQATTLRGYNIRKRDNVFEPKSSENLNSLNQSEEEGHIGRWPPLGYEAVSA | 50300
14 | MKKKKGEGMKKERRRRGGEGGGKGALRREKKGTGTGKDGEREKQEKGEEGKCN | 29900
15 | SDNQPDFVDFQELLDNDTLGNDLLETTAVLKEFELLHDDSVSATATSNEIDLS | 115000
16 | GGALSHHEIRVHWAPSWVSSRAPCSTRGLGCKPGVSLIETVVRAVVLMSCARK | 46200
17 | RLAELCLLIDPRLLVKLAGVMARYIESMATYRAHPRQIYNRQCSVFNTSLKLF | 62200
18 | GTCGKLGLLCRSMALYSPEVTVVTVSGGGGSSRWVEYLELALRTTGRVAVLLT | 64500
19 | MNIDAPRPRPGGDRPIRRRRRPVVACNECRRRKIACDRKSPCCQCTLHRVNCV | 44600
20 | AKVWKFHFHGSYTKISVHVINMIYCTMRGHEIPSLHIFKCDRLLTLSVLLGYI | 58200
21 | LASRNPPTATSPCTRTPAPAPAPRTASTTRASTPCTASTAPRAATSAACSPAA | 53100
22 | SPLNSFDRSFYPIGCTNLSNDIPGYSFLNDAMSEIHTFGDFNGELDSTFLEFS | 131000
23 | FFFSFFFFLFLFLFHLRFFPLTFVPFFIPCLLLLSSSLLLCCVVWYLFMRLFS | 46700
24 | PKDGAKEEKKSSKSRGEEKRSRSDRKEREREEKSSKGSASDKAEQPPKATASS | 6730
25 | AALFLSVQHKLFYLVMSLARFNLYFLSYSFLLLHAKRRWHWYAEIASIMLFWS | 50400

Row | Sequence | transcriptional activation domain activity
26 | MDCLLNPVVPCLVCFLPFVCKIAVSLHLPLWSICCVCVSIRIALVCTLIAFII | 50400
27 | EDASAGEGEEKKKRKKKKVEASSDEEGSGSDGSKRKSQSKRTKSSKKGRSDNG | 40700
28 | RLFAYYRSGWQVSNADVVQLPSWLFTLFLCAVCYLCMTIWYTYLTFQIHCVYW | 66300
29 | DQGLTDCGDVRHTKVVSLSYHFSPDYNDPTIIPVVTRWCTEIGKLTLTGITFV | 62400
30 | ERDEEEDEDEEEEDEGKRRKRRGARSTAAISKRETGKAKDETREDPESRKKRG | 23600
31 | MSLWISILHTTFLVGYHSIILSLSSPYHYCYLSFLFPIYPFLLGLFVFSLLSS | 56600
32 | RIWLRRLFDIARLLSVGVSNQWSLRMLLDRDAFTPLLIKWLNYYSLRIWTSAV | 68500
33 | APTTSKKRGRKADTNSDDAGSPSEPRRLRRSHEACARCRSKKIKASPVGRHRP | 30900
34 | WETIGTILYLFYVFTFLRLRFFLLLFYLYELTTMISLTIYIILYTLLFYFSCY | 41200
35 | GRGRGGRGAGARGRGGTGEEGEGAGGKQERGQGGRGKERGGEGGGERGQGGRG | 28000
36 | LPSLAQIDVLIRRERMVTIERHPLCLSLVVASQYTLGPLLLLRIVHCIYKTYG | 58200
37 | MSTLHWNMIFLVFFFWVVDVLFAWIMEVGMMVGVHVAYAYGDCGGPVLFMVPF | 71700
38 | CLLICIEYLTLSSLLDINVLLTTIVLHSLSLSSNLEVVRVVRRFFWVRCINLL | 47200
39 | VGTLHENLSSSHFMIPDVDQFNSFEDFFQDFFDSLKPNSQKMFTSDKKTEQTT | 106000
40 | KARPRQEGGQRQESGKKRKRDEDEGGDGQEGGEGGRKRRRKRKGAGGADDGVQ | 33400
41 | MILLPSLWLLSLVVIFPVCYFYIQKSFPFPSSLFCIVCPITIYIINILSSHVL | 33900
42 | KWIIPTPFASHAFNPCDGFLQSLPYHIYVYMIPMHKYLYLLMFVLVNFWTVMI | 49700
43 | SCDNIDNAEDKCSYALEYCMDATPGLLNYIQLYYCSSVKPFVFIVLCLWLLFL | 36000
44 | MKVFCSSFPFSNPILFYFSLLQIIFDYWLYNFMGSFYFWLPLAPFFFFFFLVL | 47500
45 | LAYLVMQGFFRTFGLMCFNFDSAFRLAVFFIPNFVEYTGYILPVISMQRWLFW | 63100
46 | LLPGPPFPFPPLLLFFLVVFLSCSFFELSFMFLFFVYFFFISLFFCIFFFDNH | 34700
47 | LVSALWVLNTLHSALMFHLVYHYLILNAFDLFELSQNVWSLPASMIVHLIMAF | 47500
48 | MVLLCAYERVGLGRSIGFGIFFFLPLFLLLLLTHFSFLFFFFAFTFILMMACL | 57800
49 | LNRWQKLLSWDVAYQIEGMLRRLLVDVKEMLSLMARIRAMILRYDSHYTAAFL | 71500
50 | LFPFLFFFFFFLFFSFFLSFFPSSCFLLFSPFFSLVFPFFSLVFFSSFLFFSF | 26800

Row | Sequence | transcriptional activation domain activity
51 | VPGEVTEAEANGEAPKAEDGAEDGEAAKPKKKKKSKAARKAKKAAAASTEDGA | 21600
52 | IKPEIMGLLEIHRSIAQDIGVSLLTELINPNVSIGKMLRNCITVFTLINTLRH | 77500
53 | SSFFFFSFFPGPFLLLYLWICLYPFFLFLGHPFSLGFFLLNYLLFSTATLVAG | 36200
54 | MAITHAALPPMCRISLIRVWIETMLYGFNCVMYGLCMFIPVEGRLLLCWMLIV | 50700
55 | LSQNYLLTWDDSGDWLSLADAGVIAALLFRNNLSETWLDEFASWCRLLWYLRQ | 58600
56 | EKGEGDKNRRGRRRGGRGRGGGGDKDKEKDKEGGGGGGRGERKTEGSGGISAQ | 42000
57 | SGLAFRNFWIRRISFAGHLRNSNSALTPSRYFRLMSMAVVQMFWGLVVTSLYT | 46800
58 | DNLLGMDYYNIDDLLTQELRDLDIPLVPSPKTGDGSSDKKNIDRTWNLGDENN | 79900
59 | MNQTRHFFSPFFLFSLFLSFPSFLLSSFLLLFLPFYFSPSYLLLCLFSLIFYK | 52800
60 | MLCLGLVDVYVNFLIFQLYNFLFLFGFLRWINEFVFGFPIHCLFCVILYLLIL | 30900
61 | MFFLLVLAAVISGYKAVLKHFLVVISLFLHMIYLVPPLCLWKPILVASILSSP | 44700
62 | YNGYHKVGEHYLLCKAVVDHKKKSSIHVHLIEVQPTVFNILEGLLYPKILFSS | 53500
63 | HSILGFRFPRLRIMRCITCSSMRPDLRWLTFPIFENLEVFITSLYLTRKYWIQ | 58300
64 | MLFFFLYIFLCGCFPFWNMSIFFSVIPPFFSFLPLMLLFFFFFGMFGQRINIF | 36300
65 | YIPVNYFLVVLYSNKEYPGLYKEIEKGLILLYHICTIRNDGTMFLNMKLYKNK | 36000
66 | LALIRGGSHVGQVTFDRHSIASEGVVWCLAVKFKGVTLNLSWSEAVYRWFHVL | 57300
67 | TSLVYPIHSSDTGDTLSSGLETPENSNFNSDSGIKEDFEAFRALLPLGKLIYD | 69500
68 | YLFLFYLTILVWFGLFYFIQFFFYLSFHFLFCFVLLLFFTFVFWGVFIFCFFF | 45500
69 | MQWAGLMFFRCSICLLAFSVILMFGLVWYFFALCVVNRLSTICFVFWMLLSFL | 42700
70 | MLLCLSFLCCYYDISNVSRCYCLFCCIILLFLSCSLLFWLAFSQFLRFFLISF | 62000
71 | EETKEDESSSSPADKENEKPKANTSAKQAKPRGEKKEGAASKGKGGRKQANGT | 33200
72 | VIIQLQKLFLVSISLKLVQRISSLNQLFKTSVASLPAIGNLFLLWATLFIFFA | 53000
73 | ADIHDVVYYGTFTGIFPKLHWWIQKTLHLLKPFGLLSSRQVLVHFMLFHAEQR | 83800
74 | FWNLFNLVPGIQAQNLHCRYDYYPWGLSAFCQFLPIANAIGLTGSYTGIIYCC | 33900

Reference: the supplement of paper PMC12636428
